# Results reported in US20230381316A1 (published 2023).
# Residue numbers refer to the chain shown, from its start.
# B1: anti-PSMA mouse monoclonal antibody #1207 (antibody, V domains shown)
# VH: VKLQQSGPGLVKPSQSLSLTCAVTGYSITSDYAWNWIRKFPGNKLEWMGYISYSGRTTYNPSLESRISITRDTSKNQFFLQLNSVTTEDTATYYCARCYYGSSSRWYGMDYWGRGTSVAVSS
# VL: IVLTQSPAIMSASPGVKVTMTCRASSSVDSSYLHWYQQKSGASPQVWIYSTSNLASGVPARFSGSGSGTSYSLTISSVEAEDAATYYCQQYSGYPLTFGGGTKLEIKR
# B2: anti-PSMA mouse monoclonal antibody #1366 (antibody, V domains shown)
# VH: VKLQESGPGLVAPSQSLSITCTVSGFSLTDYGVSWIRQPPGKGLEWLGVIWSDGNTYYNSPLKSRLSINKDNSKSQVFLKMNSLQTDDSAMYYCARHKVYTMDYWGQGTSVTVSS
# VL: B1 VL with I1T, V16E, D29S, G41S, Q45K, V46L, S50R, V78L, G100A, I106L
# B3: anti-PSMA mouse monoclonal antibody #1377 (antibody, V domains shown)
# VH: VQLQQPGAALVRPGASVRLSCKASGYSFTYYWMNWVMQRPGQGLEWIGMIHPSDSETRLSQKFRDKATLTVDKSSSTVYMQLNSPTSDDSAVYYCARDGNFPYYALDYWGQGTSVTVSS
# VL: DVVLTQAPLSLPVSLGDQASISCRSSQSLEYSNGNTYLHWYLQKPGQSPELLIYTVSNRFSGVPDRFSGSGSGTDFTLKIHRVEAEDLGVYFCSQSTHVPTFGGGTKLEIKR
# B4: anti-PSMA mouse monoclonal antibody #1352 (antibody, V domains shown)
# VH: VKLQQSGPELEKPGASVKISCKASGYSFTGYNVNWVKQSNGKSLEWIGNIDPYHGGTTYNQKFEAKATLTVDKSSSTAYMQLKSLTSEDSAVYYCARSSRFDYWGQGTTLTVSS
# VL: DIVMTQSHKFMSTSVGDRVNITCKASQDVGTAVAWYQQKPGQSPKFLIYWASTRHTGVPDRFTGSGSGTDFTLTISNVQSEDLADYFCHQYTSYPFTFGSGTKLEMKR
# B5: anti-PSMA mouse monoclonal antibody #219 (antibody, V domains shown)
# VH: B4 VH with K2Q, I19M, K37R, S39N, Y53L, E64K, K73R, M80L, S84N
# VL: B4 VL with F46L, Y91F, K103S
# B6: ScFv Fc 445 (antibody)
# chain: VQLQQPGAALVRPGASVRLSCKASGYSFTYYWMNWVMQRPGQGLEWIGMIHPSDSETRLSQKFRDKATLTVDKSSSTVYMQLNSPTSDDSAVYYCARDGNFPYYALDYWGQGTSVTVSSGGGGSGGGGSGGGGSDVVLTQAPLSLPVSLGDQASISCRSSQSLEYSNGNTYLHWYLQKPGQSPELLIYTVSNRFSGVPDRFSGSGSGTDFTLKIHRVEAEDLGVYFCSQSTHVPTFGGGTKLEIKR
# B7: ScFv Fc 446 (antibody, V domains shown)
# VH: B2 VH
# VL: B1 VL with I1T, V16E, D29S, G41S, Q45K, V46L, S50R, V78L, G100A, I106L
# B8: ScFv Fc 444 (antibody, V domains shown)
# VH: B4 VH with K2Q, I19M, K37R, S39N, Y53L, E64K, K73R, M80L, S84N
# VL: B4 VL with F46L, Y91F, K103S
# B9: J591 (antibody, V domains shown)
# VH: EVQLQQSGPELVKPGTSVRISCKTSGYTFTEYTIHWVKQSHGKSLEWIGNINPNNGGTTYNQKFEDKATLTVDKSSSTAYMELRSLTSEDSAVYYCAAGWNFDYWGQGTTLTVSS
# VL: DIVMTQSHKFMSTSVGDRVSIICKASQDVGTAVDWYQQKPGQSPKLLIYWASTRHTGVPDRFTGSGSGTDFTLTITNVQSEDLADYFCQQYNSYPLTFGAGTMLDLK
# Target: T1, purified recombinant human PSMA protein (PSMA extracellular domain, baculovirus-insect cell expression) (UniProt Q04609 44-750)
# Experiment: SPR (Biacore)
# T1 sequence (Q04609 44-750): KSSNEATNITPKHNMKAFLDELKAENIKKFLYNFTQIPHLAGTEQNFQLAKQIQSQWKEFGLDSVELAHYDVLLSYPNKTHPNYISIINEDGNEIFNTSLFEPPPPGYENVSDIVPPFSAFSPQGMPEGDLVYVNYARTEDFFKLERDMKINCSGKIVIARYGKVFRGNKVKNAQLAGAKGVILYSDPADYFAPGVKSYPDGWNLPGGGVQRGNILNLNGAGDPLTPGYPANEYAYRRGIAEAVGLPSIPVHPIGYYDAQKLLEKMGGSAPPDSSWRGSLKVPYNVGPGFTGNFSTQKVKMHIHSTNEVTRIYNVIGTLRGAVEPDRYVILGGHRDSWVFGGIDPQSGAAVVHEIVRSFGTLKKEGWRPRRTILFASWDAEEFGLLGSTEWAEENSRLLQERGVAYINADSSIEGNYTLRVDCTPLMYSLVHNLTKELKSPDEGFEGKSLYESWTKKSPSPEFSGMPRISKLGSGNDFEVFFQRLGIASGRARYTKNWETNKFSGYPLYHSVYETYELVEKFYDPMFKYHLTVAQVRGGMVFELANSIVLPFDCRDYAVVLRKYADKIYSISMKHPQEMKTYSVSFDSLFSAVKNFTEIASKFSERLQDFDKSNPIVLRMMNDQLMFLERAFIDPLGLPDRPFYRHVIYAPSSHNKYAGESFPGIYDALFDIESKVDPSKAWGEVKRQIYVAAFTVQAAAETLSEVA
row,Binder,Kd [nM]
1,B1,8.13
2,B2,295
3,B3,18.6
4,B4,1.99
5,B5,2.64

# Target: T1, purified recombinant human PSMA protein …
# Experiment: SPR (Biacore); Langmuir fit
row,Binder,Kd [nM]
1,B5,2.64

# Target: T1, purified recombinant human PSMA protein …
# Experiment: SPR (Biacore); Bivalent fit
row,Binder,Kd [nM]
1,B6,2.55
2,B7,1160
3,B1,8.13
4,B2,295
5,B3,18.6
6,B8,4.35
7,B4,1.99

# Target: PSMA
# Experiment: previously reported; previously reported value
row,Binder,Kd [nM]
1,B9,1.83
